Laboratory results: patent US20240158494A1 (Biogen, published 2024)
Where two headings read alike, the source gives them in different places.

Assays:
[1] = molecular target: T1, cynomolgus monkey transferrin receptor 1 (TfR1), full length, expressed on cells (cynomolgus monkey, UniProt Q5RDH6 1-760 (Pongo abelii entry)); assay: FACS on Ba/F3 cells, Fab supernatant
T1 construct: also called cyno TfR1; cyTfR

[2] = molecular target: T2, human transferrin receptor 1 (TfR1), full length, expressed on cells (human, UniProt P02786 1-760); assay: FACS on Ba/F3 cells, Fab supernatant
T2 construct: also called human TfR1; huTfR

[3] = molecular target: T3, recombinant human TfR1 extracellular domain, His-tagged (human, UniProt P02786 89-760); assay: SPR, TfR1 ECD-His captured, Fab injected, 1:1 fit
T3 construct: also called Human TfR1 ECD; human TfR1 ECD-His

[4] = molecular target: T4, recombinant cynomolgus monkey TfR1 extracellular domain, His-tagged (cynomolgus monkey, UniProt Q5RDH6 87-760 (Pongo abelii entry)); assay: SPR, TfR1 ECD-His captured, Fab injected, 1:1 fit
T4 construct: also called Cyno TfR1 ECD; cyno TfR1 ECD-His

[5] = molecular target: T1, cynomolgus monkey transferrin receptor …; assay: FACS on Ba/F3 cells, Fab supernatant; remark: listed apart in the source
[6] = molecular target: T2, human transferrin receptor 1 (TfR1), …; assay: FACS on Ba/F3 cells, Fab supernatant; remark: listed apart in the source
[7] = molecular target: T1, cynomolgus monkey transferrin receptor …; assay: FACS on Ba/F3 cells, Fab supernatant; remark: listed apart in the source
[8] = molecular target: T2, human transferrin receptor 1 (TfR1), …; assay: FACS on Ba/F3 cells, Fab supernatant; remark: listed apart in the source

B1: TfRANTIBODY-A HC-H3(HA) hIgG1Fab′(1C)/LC-L0 hKappa (Fab, V domains shown)
VH: QSLVESGGGLVQPGGSLRLSCKASGIDFSSSGYMHWVRQAPGKGLEWVGAIYTYSSNTYYASWAKGRFTISKDSKNSVYLQMNSLKTEDTAVYYCARGTYGYTGYTYTMGYFSLWGPGTLVTVSS
VL: DIQMTQSPSTLSASVGDRVTITCQASQNINSYLAWYQQKPGKAPKLLIYRASSLESGVPSRFSGSGSGTEFTLTISSLQPDDFATYYCQSYYYSGSSNYNAFGGGTKVEIKR
notes: also called ANTIBODY-A H3(HA)/L0; H3C(HA)/L0
EC50 [1]: ~30 nM
EC50 [2]: 16.8 nM

B2: TfRANTIBODY-A HC-H3(SR) hIgG1Fab′(1C)/LC-L0 hKappa (Fab, V domains shown)
VH: QSLVESGGGLVQPGGSLRLSCKASGIDFSSSGYMSWVRQAPGKGLEWVGRIYTYSSNTYYASWAKGRFTISKDSKNSVYLQMNSLKTEDTAVYYCARGTYGYTGYTYTMGYFSLWGPGTLVTVSS
VL: DIQMTQSPSTLSASVGDRVTITCQASQNINSYLAWYQQKPGKAPKLLIYRASSLESGVPSRFSGSGSGTEFTLTISSLQPDDFATYYCQSYYYSGSSNYNAFGGGTKVEIKR
notes: also called ANTIBODY-A H3(SR)/L0
binding result [1]: no binding
EC50 [2]: > 290 nM

B3: TfRANTIBODY-A HC-H3(SV) hIgG1Fab′(1C)/LC-L0 hKappa (Fab, V domains shown)
VH: QSLVESGGGLVQPGGSLRLSCKASGIDFSSSGYMSWVRQAPGKGLEWVGVIYTYSSNTYYASWAKGRFTISKDSKNSVYLQMNSLKTEDTAVYYCARGTYGYTGYTYTMGYFSLWGPGTLVTVSS
VL: DIQMTQSPSTLSASVGDRVTITCQASQNINSYLAWYQQKPGKAPKLLIYRASSLESGVPSRFSGSGSGTEFTLTISSLQPDDFATYYCQSYYYSGSSNYNAFGGGTKVEIKR
notes: also called ANTIBODY-A H3(SV)/L0
binding result [1]: no binding
EC50 [2]: > 150 nM

B4: TfRANTIBODY-A HC-H3(SY) hIgG1Fab′(1C)/LC-L0 hKappa (Fab, V domains shown)
VH: QSLVESGGGLVQPGGSLRLSCKASGIDFSSSGYMSWVRQAPGKGLEWVGYIYTYSSNTYYASWAKGRFTISKDSKNSVYLQMNSLKTEDTAVYYCARGTYGYTGYTYTMGYFSLWGPGTLVTVSS
VL: DIQMTQSPSTLSASVGDRVTITCQASQNINSYLAWYQQKPGKAPKLLIYRASSLESGVPSRFSGSGSGTEFTLTISSLQPDDFATYYCQSYYYSGSSNYNAFGGGTKVEIKR
notes: also called ANTIBODY-A H3(SY)/L0
binding result [1]: no binding
EC50 [2]: > 125 nM

B5: TfRANTIBODY-B HC-H1(HA) hIgG1Fab′(1C/LC-L2 hKappa (Fab, V domains shown)
VH: QSLVESGGGVVQPGRSLRLSCAASGFSFSNSYWIHWVRQAPGKGLEWVAAINTDADSTNYADSVKGRFTISKDNSKNTVYLQMNSLRAEDTAVYYCARQNNVFDPGYNLWGQGTLVTVSS
VL: ELVLTQSPSTLSASVGDRVTITCRASQNIGSNLAWYQQKPGKAPKLLIYDASKLESGVPSRFSGSGSGTEFTLTISSLQPDDFATYYCQCTVRGGAYGNAFGGGTKVEIKR
notes: also called ANTIBODY-B H1(HA)/L2
EC50 [1]: 7.1 nM
EC50 [2]: 18.2 nM

B6: TfR1 ANTIBODY-B HC-H2 hIgG1 Fab′(1C)/LC-L2 hKappa (Fab, V domains shown)
VH: QSLVESGGGVVQPGRSLRLSCKASGFSFSNSYWIAWVRQAPGKGLEWVAAINTDADSTNYADSVKGRFTISKDSSTTVYLQMNSLRAEDTAVYYCARQNNVFDPGYNLWGQGTLVTVSS
VL: ELVLTQSPSTLSASVGDRVTITCRASQNIGSNLAWYQQKPGKAPKLLIYDASKLESGVPSRFSGSGSGTEFTLTISSLQPDDFATYYCQCTVRGGAYGNAFGGGTKVEIKR
notes: also called ANTIBODY-B H2/L2
Kd [3]: 39.4 nM
koff [3]: 0.00328 s⁻¹
kon [3]: 83200 M⁻¹ s⁻¹
Kd [4]: 8.7 nM
koff [4]: 0.00113 s⁻¹
kon [4]: 129000 M⁻¹ s⁻¹
EC50 [5]: 7.7 nM
EC50 [6]: 10.2 nM

B7: TfR1 ANTIBODY-B HC-H0 hIgG1 Fab′(1C)/LC-L2 hKappa (Fab, V domains shown)
VH: QVQLVESGGGVVQPGRSLRLSCAASGFSFSNSYWIAWVRQAPGKGLEWVAAINTDADSTNYADSVKGRFTISRDNSKNTLYLQMNSLRAEDTAVYYCARQNNVFDPGYNLWGQGTLVTVSS
VL: ELVLTQSPSTLSASVGDRVTITCRASQNIGSNLAWYQQKPGKAPKLLIYDASKLESGVPSRFSGSGSGTEFTLTISSLQPDDFATYYCQCTVRGGAYGNAFGGGTKVEIKR
notes: also called ANTIBODY-B H0/L2
EC50 [5]: 44.5 nM
EC50 [6]: 168 nM

B8: TfR1 ANTIBODY-B HC-H1 hIgG1 Fab′(1C)/LC-L2 hKappa (Fab, V domains shown)
VH: QSLVESGGGVVQPGRSLRLSCAASGFSFSNSYWIAWVRQAPGKGLEWVAAINTDADSTNYADSVKGRFTISKDNSKNTVYLQMNSLRAEDTAVYYCARQNNVFDPGYNLWGQGTLVTVSS
VL: ELVLTQSPSTLSASVGDRVTITCRASQNIGSNLAWYQQKPGKAPKLLIYDASKLESGVPSRFSGSGSGTEFTLTISSLQPDDFATYYCQCTVRGGAYGNAFGGGTKVEIKR
notes: also called ANTIBODY-B H1/L2
Kd [3]: 47.8 nM
koff [3]: 0.00453 s⁻¹
kon [3]: 94700 M⁻¹ s⁻¹
Kd [4]: 12 nM
koff [4]: 0.00105 s⁻¹
kon [4]: 88300 M⁻¹ s⁻¹
EC50 [5]: 4.9 nM
EC50 [6]: 9.6 nM

B9: TfRANTIBODY-B HC-H1(SV) hIgG1Fab′(1C)/LC-L2 hKappa (Fab, V domains shown)
VH: QSLVESGGGVVQPGRSLRLSCAASGFSFSNSYWISWVRQAPGKGLEWVAVINTDADSTNYADSVKGRFTISKDNSKNTVYLQMNSLRAEDTAVYYCARQNNVFDPGYNLWGQGTLVTVSS
VL: ELVLTQSPSTLSASVGDRVTITCRASQNIGSNLAWYQQKPGKAPKLLIYDASKLESGVPSRFSGSGSGTEFTLTISSLQPDDFATYYCQCTVRGGAYGNAFGGGTKVEIKR
notes: also called ANTIBODY-B H1(SV)/L2
EC50 [1]: 30 nM
EC50 [2]: 98.6 nM

B10: TfRANTIBODY-B HC-H1(SR) hIgG1Fab′(1C)/LC-L2 hKappa (Fab, V domains shown)
VH: QSLVESGGGVVQPGRSLRLSCAASGFSFSNSYWISWVRQAPGKGLEWVARINTDADSTNYADSVKGRFTISKDNSKNTVYLQMNSLRAEDTAVYYCARQNNVFDPGYNLWGQGTLVTVSS
VL: ELVLTQSPSTLSASVGDRVTITCRASQNIGSNLAWYQQKPGKAPKLLIYDASKLESGVPSRFSGSGSGTEFTLTISSLQPDDFATYYCQCTVRGGAYGNAFGGGTKVEIKR
notes: also called ANTIBODY-B H1(SR)/L2
binding result [1]: no binding
binding result [2]: no binding

B11: TfRANTIBODY-B HC-H3C/LC-L2 (C90T) hIgG1Fab′(1C) (Fab, V domains shown)
VH: QSLVESGGGVVQPGRSLRLSCAASGFSFSNSYWICWVRQAPGKGLEWVGCINTDADSTNYASWARGRFTISKDNSKNTLYLQMNSLRAEDTAVYYCARQNNVFDPGYNLWGQGTLVTVSS
VL: ELVLTQSPSTLSASVGDRVTITCRASQNIGSNLAWYQQKPGKAPKLLIYDASKLESGVPSRFSGSGSGTEFTLTISSLQPDDFATYYCQTTVRGGAYGNAFGGGTKVEIKR
notes: also called ANTIBODY-B H3C/L2(C90T)
EC50 [7]: 6.3 nM
EC50 [8]: 15.9 nM

B12: TfRANTIBODY-B HC-H1(SY) hIgG1Fab′(1C)/LC-L2 hKappa (Fab, V domains shown)
VH: QSLVESGGGVVQPGRSLRLSCAASGFSFSNSYWISWVRQAPGKGLEWVAYINTDADSTNYADSVKGRFTISKDNSKNTVYLQMNSLRAEDTAVYYCARQNNVFDPGYNLWGQGTLVTVSS
VL: ELVLTQSPSTLSASVGDRVTITCRASQNIGSNLAWYQQKPGKAPKLLIYDASKLESGVPSRFSGSGSGTEFTLTISSLQPDDFATYYCQCTVRGGAYGNAFGGGTKVEIKR
notes: also called ANTIBODY-B H1(SY)/L2
EC50 [1]: > 55 nM
EC50 [2]: 113 nM

B13: TfRANTIBODY-B HC-H3C/LC-L2 (C90V) hIgG1Fab′(1C) (Fab, V domains shown)
VH: QSLVESGGGVVQPGRSLRLSCAASGFSFSNSYWICWVRQAPGKGLEWVGCINTDADSTNYASWARGRFTISKDNSKNTLYLQMNSLRAEDTAVYYCARQNNVFDPGYNLWGQGTLVTVSS
VL: ELVLTQSPSTLSASVGDRVTITCRASQNIGSNLAWYQQKPGKAPKLLIYDASKLESGVPSRFSGSGSGTEFTLTISSLQPDDFATYYCQVTVRGGAYGNAFGGGTKVEIKR
notes: also called ANTIBODY-B H3C/L2(C90V)
EC50 [7]: 3.2 nM
EC50 [8]: 7.7 nM

B14: TfR1 ANTIBODY-B HC-H0C hIgG1 Fab′(1C)/LC-L2 hKappa (Fab, V domains shown)
VH: QVQLVESGGGVVQPGRSLRLSCAASGFSFSNSYWICWVRQAPGKGLEWVGCINTDADSTNYADSVKGRFTISRDNSKNTLYLQMNSLRAEDTAVYYCARQNNVFDPGYNLWGQGTLVTVSS
VL: ELVLTQSPSTLSASVGDRVTITCRASQNIGSNLAWYQQKPGKAPKLLIYDASKLESGVPSRFSGSGSGTEFTLTISSLQPDDFATYYCQCTVRGGAYGNAFGGGTKVEIKR
notes: also called ANTIBODY-B H0C/L2
Kd [3]: 14.1 nM
koff [3]: 0.00343 s⁻¹
kon [3]: 244000 M⁻¹ s⁻¹
Kd [4]: 6.5 nM
koff [4]: 0.00136 s⁻¹
kon [4]: 210000 M⁻¹ s⁻¹
EC50 [5]: 5.5 nM
EC50 [6]: 9.3 nM

B15: TfR1 ANTIBODY-B HC-H3 hIgG1 Fab′(1C)/LC-L2 hKappa (Fab, V domains shown)
VH: QSLVESGGGVVQPGRSLRLSCAASGFSFSNSYWIAWVRQAPGKGLEWVAAINTDADSTNYASWARGRFTISKDNSKNTLYLQMNSLRAEDTAVYYCARQNNVFDPGYNLWGQGTLVTVSS
VL: ELVLTQSPSTLSASVGDRVTITCRASQNIGSNLAWYQQKPGKAPKLLIYDASKLESGVPSRFSGSGSGTEFTLTISSLQPDDFATYYCQCTVRGGAYGNAFGGGTKVEIKR
notes: also called ANTIBODY-B H3/L2
Kd [3]: 65 nM
koff [3]: 0.00595 s⁻¹
kon [3]: 91500 M⁻¹ s⁻¹
Kd [4]: 12 nM
koff [4]: 0.00172 s⁻¹
kon [4]: 143000 M⁻¹ s⁻¹
EC50 [5]: 5.7 nM
EC50 [6]: 15.7 nM
